What all share (test): cell-based or functional assay
Assay [1] has as its target T1, mouse melanocortin 1 receptor (mouse, UniProt Q01727 1-315).
Assay [2] addresses T2, mouse melanocortin 4 receptor (mouse, UniProt P56450 1-332).
Assay [3] deals with T1, mouse melanocortin 1 receptor. The source holds these as a separate data set.
In assay [4] the target is T3, mouse melanocortin 5 receptor (mouse, UniProt P41149 1-325).
Assay [5] concerns the target T4, mouse melanocortin 3 receptor (mouse, UniProt P33033 1-323).
The target in assay [6] is T2, mouse melanocortin 4 receptor. This is another data set of the same source.
In assay [7] the target is T3, mouse melanocortin 5 receptor. This is another data set of the same source.
Assay [8] addresses T4, mouse melanocortin 3 receptor. This is another data set of the same source.

The source of these data is US20180118789A1 (REGENTS OF THE UNIVERSITY OF MINNESOTA, published 2018).

Non-standard residues stand in square brackets, D forms with d. Dap = NC[C@H](N)C(=O)O

T2 sequence (P56450 whole entry): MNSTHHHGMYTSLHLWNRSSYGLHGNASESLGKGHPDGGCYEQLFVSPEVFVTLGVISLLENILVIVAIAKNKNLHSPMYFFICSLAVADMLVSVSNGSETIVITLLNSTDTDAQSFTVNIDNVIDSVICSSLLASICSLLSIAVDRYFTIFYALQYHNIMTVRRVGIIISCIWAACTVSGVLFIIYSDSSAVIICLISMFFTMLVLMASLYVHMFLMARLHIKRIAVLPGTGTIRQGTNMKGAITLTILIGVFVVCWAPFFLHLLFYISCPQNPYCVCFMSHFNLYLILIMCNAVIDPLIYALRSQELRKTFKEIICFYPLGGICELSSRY
T3 sequence (P41149 whole entry): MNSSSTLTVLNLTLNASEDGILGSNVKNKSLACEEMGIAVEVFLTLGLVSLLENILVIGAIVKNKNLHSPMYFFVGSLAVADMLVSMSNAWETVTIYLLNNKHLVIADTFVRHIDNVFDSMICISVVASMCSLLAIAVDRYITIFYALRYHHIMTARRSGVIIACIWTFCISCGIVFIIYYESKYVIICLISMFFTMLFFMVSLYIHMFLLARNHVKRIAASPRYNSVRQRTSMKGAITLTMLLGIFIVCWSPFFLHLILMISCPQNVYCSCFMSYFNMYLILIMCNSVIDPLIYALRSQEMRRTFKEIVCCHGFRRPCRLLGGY
T1 sequence (Q01727 whole entry): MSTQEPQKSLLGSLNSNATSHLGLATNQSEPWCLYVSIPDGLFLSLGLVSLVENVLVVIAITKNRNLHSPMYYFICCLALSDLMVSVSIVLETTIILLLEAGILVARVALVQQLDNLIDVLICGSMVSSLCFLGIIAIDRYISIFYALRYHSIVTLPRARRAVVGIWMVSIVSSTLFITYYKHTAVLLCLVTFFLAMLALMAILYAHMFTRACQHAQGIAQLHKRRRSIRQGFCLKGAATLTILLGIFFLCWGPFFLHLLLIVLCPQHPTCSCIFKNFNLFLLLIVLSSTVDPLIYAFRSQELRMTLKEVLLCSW
T4 sequence (P33033 whole entry): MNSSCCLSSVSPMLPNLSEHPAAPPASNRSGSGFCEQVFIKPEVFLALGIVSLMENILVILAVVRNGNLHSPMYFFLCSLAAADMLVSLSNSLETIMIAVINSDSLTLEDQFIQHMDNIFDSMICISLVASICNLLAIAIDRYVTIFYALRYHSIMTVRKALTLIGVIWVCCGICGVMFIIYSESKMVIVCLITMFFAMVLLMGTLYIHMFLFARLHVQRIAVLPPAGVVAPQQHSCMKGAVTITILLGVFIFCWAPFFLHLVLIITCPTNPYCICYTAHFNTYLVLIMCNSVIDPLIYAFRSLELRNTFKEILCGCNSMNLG

In the case of cyclo(PH[dF]RW[Dap]AF[dP]) (also: TFA salt) [MDE5-151-2c, c[Pro-His-DPhe-Arg-Trp-Dap-Ala-Phe-DPro]], in assay [1], the “fold decreased potency relative to MDE5-149-2c” value was found to be 70 fold. The “apparent EC50 (nM), partial agonist, cAMP AlphaScreen” value (shortened to “apparent EC50 (nM), partial agonist”) in assay [2] turned out to be 23 nM. Moreover, the “partial agonist, percent maximal NDP stimulation” value in assay [2] came to 70%. The figures for the “EC50 (nM), agonist, cAMP AlphaScreen” value in assay [3], in assay [4] and in assay [5] were 24 nM, 18 nM and 260 nM, respectively.

On to cyclo(P[dF]RW[Dap]AF[dP]) (also: TFA salt) [MDE5-151-1c, c[Pro-DPhe-Arg-Trp-Dap-Ala-Phe-DPro]], for which the “EC50 (nM), agonist, cAMP AlphaScreen” value in assay [2] was found to be 100 nM; in assay [4], 46 nM. The results for the “apparent EC50 (nM), partial agonist” value in assay [3] and in assay [5] were 190 nM and 3000 nM, respectively. Further, the “partial agonist, percent maximal NDP stimulation” value was determined as 45% in assay [3] and 70% in assay [5].

Take cyclo(P[dF]RWNAF[dP]) (also: TFA salt) [MDE5-149-1c, c[Pro-DPhe-Arg-Trp-Asn-Ala-Phe-DPro]]: the entries for the “fold decreased potency relative to MDE5-149-2c” value in assay [6], in assay [1] and in assay [7] were 90 fold, 1140 fold and 90 fold, respectively. The “EC50 (nM), agonist, cAMP AlphaScreen” value in assay [2] was 130 nM; in assay [3], 400 nM; in assay [4], 40 nM. In assay [5], the “percent maximal stimulatory response observed at 100 µM” value turned out to be 45%.

Turning to cyclo(PH[dF]RWNA[dP]) (also: TFA salt) [MDE6-3-2c, c[Pro-His-DPhe-Arg-Trp-Asn-Ala-DPro]], the “fold loss of agonist potency relative to MDE5-149-2c” value in assay [6] is 21 fold; in assay [1] it was 34 fold; in assay [7], 5 fold; in assay [8], 9 fold. For the same molecule, the “EC50 (nM), agonist, cAMP AlphaScreen” value worked out at 29 nM in assay [2], 12 nM in assay [3], 2.1 nM in assay [4] and 300 nM in assay [5].

cyclo(P[dF]RW[Dap][dP]) (also: TFA salt) [MDE6-12-1c, c[Pro-DPhe-Arg-Trp-Dap-DPro]]: the “percent maximal stimulatory response observed at 100 µM” value in assay [2] is 35%. Further, in assay [3], the “apparent EC50 (nM), partial agonist” value came to 110 nM and the “partial agonist, percent maximal NDP stimulation” value came out at 75%. Also, the “EC50 (nM), agonist, cAMP AlphaScreen (lacked agonist activity at up to 100 µM)” value (from here on “EC50 … (lacked agonist activity at up to 100 µM)”) in assay [4] was > 100000 nM. In addition, the “EC50 … (lacked agonist activity at up to 100 µM)” value in assay [5] is > 100000 nM.

As for cyclo(PH[dF]RWNAF[dP]) (also: TFA salt) [MDE5-149-2c, c[Pro-His-DPhe-Arg-Trp-Asn-Ala-Phe-DPro]], the “EC50 (nM), agonist, cAMP AlphaScreen” value in assay [2] stood at 1.4 nM; in assay [3], 0.35 nM; in assay [4], 0.45 nM; in assay [5] it was 32 nM.

Turning to cyclo(PH[dF]RWN[dP]) (also: TFA salt) [MDE6-10-2c, c[Pro-His-DPhe-Arg-Trp-Asn-DPro]], the figures for the “fold decrease of agonist potency relative to MDE5-149-2c” value in assay [6], in assay [1] and in assay [7] were 121 fold, 143 fold and 37 fold, respectively. The figures for the “EC50 (nM), agonist, cAMP AlphaScreen” value in assay [2], in assay [3] and in assay [4] were 170 nM, 50 nM and 16.8 nM, respectively. In addition, the “apparent EC50 (nM), partial agonist” value in assay [5] came out at 510 nM. Also, the “partial agonist, percent maximal NDP stimulation” value in assay [5] amounted to 65%.

For cyclo(P[dF]RWNA[dP]) (also: TFA salt) [MDE6-3-1c, c[Pro-DPhe-Arg-Trp-Asn-Ala-DPro]], the results for the “EC50 (nM), agonist, cAMP AlphaScreen” value in assay [2], in assay [3] and in assay [4] were 420 nM, 500 nM and 70 nM, respectively. Besides, in assay [5], the “percent maximal stimulatory response observed at 100 µM” value stood at 55%.

Take cyclo(P[dF]RWN[dP]) (also: TFA salt) [MDE6-10-1c, c[Pro-DPhe-Arg-Trp-Asn-DPro]]: in assay [6], the “fold decrease of agonist potency against MDE5-149-1c” value was found to be 8 fold. In addition, the “fold increase of agonist potency over MDE5-149-1c” value in assay [1] came out at 10 fold. The “EC50 (nM), agonist, cAMP AlphaScreen” value turned out to be 1100 nM in assay [2] and 40 nM in assay [3]. In assay [4], the “percent maximal stimulatory response observed at 100 µM” value stood at 25%. In addition, the “EC50 … (lacked agonist activity at up to 100 µM)” value in assay [5] was > 100000 nM.

With cyclo(P[dF]RW[Dap]A[dP]) (also: TFA salt) [MDE6-5-1c, c[Pro-DPhe-Arg-Trp-Dap-Ala-DPro]], the entries for the “EC50 (nM), agonist, cAMP AlphaScreen” value in assay [2], in assay [3] and in assay [4] were 150 nM, 600 nM and 48 nM, respectively. The “percent maximal stimulatory response observed at 100 µM” value in assay [5] is 70%.

In the case of cyclo(PH[dF]RW[Dap]A[dP]) (also: TFA salt) [MDE6-5-2c, c[Pro-His-DPhe-Arg-Trp-Dap-Ala-DPro]], the “EC50 (nM), agonist, cAMP AlphaScreen” value in assay [2] stood at 1.6 nM; in assay [3], 1.1 nM; in assay [4] it was 0.3 nM; in assay [5] it was 40 nM.

Take cyclo(P[dF]RW[dP]) (also: TFA salt) [MDE5-147-1c, c[Pro-DPhe-Arg-Trp-DPro]]: the “percent maximal stimulatory response observed at 100 µM” value in assay [2] came to 50%; in assay [4] it was 75%. Besides, the “EC50 (nM), agonist, cAMP AlphaScreen” value in assay [3] turned out to be 1800 nM. The “EC50 … (lacked agonist activity at up to 100 µM)” value in assay [5] was > 100000 nM.

Take cyclo(PH[dF]RW[Dap][dP]) (also: TFA salt) [MDE6-12-2c, c[Pro-His-DPhe-Arg-Trp-Dap-DPro]]: the “fold decrease of agonist potency relative to MDE6-5-2c” value in assay [6] worked out at 593 fold; in assay [1], 418 fold; in assay [7], 1100 fold. For the same molecule, the “EC50 (nM), agonist, cAMP AlphaScreen” value came to 950 nM in assay [2], 460 nM in assay [3] and 330 nM in assay [4]. Further, in assay [5], the “percent maximal stimulatory response observed at 100 µM” value was 65%.

Turning to cyclo(PH[dF]RW[dP]) (also: TFA salt) [MDE5-147-2c, c[Pro-His-DPhe-Arg-Trp-DPro]], the entries for the “percent maximal stimulatory response observed at 100 µM” value in assay [2] and in assay [5] were 65% and 60%, respectively. Moreover, the “EC50 (nM), agonist, cAMP AlphaScreen” value in assay [3] turned out to be 900 nM; in assay [4], 6000 nM.
